Data as given in PMC10638403, “A closed translocation channel in the substrate-free AAA+ ClpXP protease diminishes rogue degradation” (Nature Communications, 2023).

B1: E. coli ClpP (enzyme)
chain: not shown
notes: ClpP peptidase, E. coli; models hold residues 2-193 of each subunit; also called ClpP14; double-ring ClpP tetradecamer; source: E. coli HMS174(DE3), pT7 plasmid, purified (Ni-NTA, size-exclusion chromatography); copies: 14
B2: full-length E. coli ClpX (enzyme)
chain: not shown
notes: ClpX, E. coli, full length, with a neutral K408E mutation; The methods tell two purifications for full-length ClpX (Ni-NTA, gel filtration and ion exchange; or ammonium sulfate, phenyl-Sepharose and mono-Q), so the His6 tag on this form is not certain; The N-terminal domains were not visible in the map; models typically hold residues 65-413; also called wild-type ClpX; ClpX6; source: E. coli …

What was measured:
[1] = molecular target: B2; test: cryo-EM structure; ClpX6 (5.8 µM), ClpP14 (1.9 µM), λO-Arc (20 µM dimer), ATPγS (2.5 mM) in 25 mM HEPES (pH 7.5), 100 mM KCl, 25 mM MgCl2; ClpX and ClpP incubated with ATPγS for 5 min at room temperature before λO-Arc was added; the substrate-free class was refined; settings: both partners purified
[2] = molecular target: the molecule itself; test: cryo-EM structure; single-chain ClpX^∆N (3 µM pseudohexamer) and ClpP (1.5 µM tetradecamer) in 20 mM HEPES (pH 7.5), 100 mM KCl, 25 mM MgCl2, incubated with ATP (5 mM) for 15 min at room temperature; doubly capped and singly capped particles
[3] = molecular target: the molecule itself; test: cryo-EM structure; ClpX6 (5.8 µM), ClpP14 (1.9 µM), λO-Arc (20 µM dimer), ATPγS (2.5 mM) in 25 mM HEPES (pH 7.5), 100 mM KCl, 25 mM MgCl2; ClpX and ClpP incubated with ATPγS for 5 min at room temperature before λO-Arc was added; the substrate-free class was refined

Binder | binding result [1] | stoichiometry N [2] [subunits] | stoichiometry N [3] [subunits]
B1 | binds | 14 | 
B2 |  |  | 6
